The record followed here is FireProtDB (doi:10.1021/bi034486i).

The chains are these.
B1: Thioredoxin-like protein 4A, P83876 (parent)
chain: MSYMLPHLHNGWQVDQAILSEEDRVVVIRFGHDWDPTCMKMDEVLYSIAEKVKNFAVIYLVDITEVPDFNKMYELYDPCTVMFFFRNKHIMIDLGTGNNNKINWAMEDKQEMVDIIETVYRGARKGRGLVVSPKDYSTKYRY

The data set covers variants of B1. The following applies: Homo sapiens; pH 7.82; 20 °C; GdnHCl; CD; sodium phosphate 50 mM; structure 1QGV; whole UniProt chain shown.
For G126D, the “ddG of mutation (higher = less stable)” value was 1.71 kcal/mol, the denaturant m value was 2.78 kcal/mol/M, the “denaturant midpoint (higher = more stable)” value stood at 3.36 M and the unfolding free energy was determined as 9.34 kcal/mol.
